The values below come from the supplement of paper PMC11780869.

This data set has as its system Bacillus subtilis. In words: cleaved RNA product abundance (RNA/gDNA barcode ratio) relative to median wild-type variant (ratio to wild type); higher = more accumulation of the downstream cleavage product. As to conditions: cleavage site: cggR-gapA (positions -7 to +36 mutated). In short, it runs like this: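 Oligos with a 9% error rate were used to build barcoded, mutagenized RNase Y cleavage-site windows within truncated aprE or tetM reporter mRNAs, which were integrated into the B. subtilis chromosome. Cultures were grown in LB at 37°C between OD600 0.0003 and 0.3. Cleaved RNA was gel-selected, reverse transcribed and barcode-sequenced, as were genomic DNA barcodes, and UMIs were collapsed. Cleaved product abundance is the scaled RNA:gDNA barcode ratio, with the median construct carrying the unmutated site as reference.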

Setting [1] is: experiment (reporter, strain, medium): exp 4a: truncated aprE reporter, strain BJT201 with 2% xylose (RNase J1 expressed).
Where [2] appears, read: experiment (reporter, strain, medium): exp 2b: truncated aprE reporter, strain BJT200.
Setting [3] is: experiment (reporter, strain, medium): exp 6: tetM reporter, strain 168.

In the case of “ACAGACGAAGGAGCCGCAAAGAAGTTATTAAGGGATGAATAATCCTTAAATATAAATATCTCTCACTTATTTAAA”, the “cleaved RNA product abundance” value under setting [1] came to 0.581.
Regarding “ACAGACGAAGGAGCCGCAAAGAAGTTATTAAGGGATGAATAATCCTTCAAAATAAATATCTCTCACTTATTTAAA”, the “cleaved RNA product abundance” value by setting is: under setting [2], 0.259; under setting [1], 0.253.
As to “ACAGACGAAGGAGCCGCAAAGAAGTTATTAAGGGATGAATAATCCTTCAACATAAATATCTCTCACTTATTTAAA”, the “cleaved RNA product abundance” value under setting [2] was found to be 0.159.
Take “ACAGACGAAGGAGCCGCAAAGAAGTTATTAAGGGATGAATAATCCTTCAAGATAAATATCTCTCACTTATTTAAA”: the “cleaved RNA product abundance” value under setting [1] amounted to 0.162.
As for “ACAGACGAAGGAGCCGCAAAGAAGTTATTAAGGGATGAATAATCCTTCAATAAAAATATCTCTCACTTATTTAAA”, the “cleaved RNA product abundance” value under setting [2] is 0.185.
As for “ACAGACGAAGGAGCCGCAAAGAAGTTATTAAGGGATGAATAATCCTTCAATATAAACATCTCTCACTTATTTAAA”, the “cleaved RNA product abundance” value runs as follows: under setting [2], 0.415; under setting [1], 0.33.
The corresponding values for “ACAGACGAAGGAGCCGCAAAGAAGTTATTAAGGGATGAATAATCCTTCAATATAAATAACTCTCACTTATTTAAA” are 0.395 and 0.935.
Turning to “ACAGACGAAGGAGCCGCAAAGAAGTTATTAAGGGATGAATAATCCTTCAATATAAATATCTCTCACTTATTTAAA”, the “cleaved RNA product abundance” value is 0.442 under setting [2], 0.576 under setting [1] and 0.617 under setting [3].
Consider “ACAGACGAAGGAGCCGCAAAGAAGTTATTAAGGGATGAATAATCCTTCAATATAAATATCTCTCACTTATTTAAG”, for which the “cleaved RNA product abundance” value under setting [1] worked out at 0.558.
As for “ACAGACGAAGGAGCCGCAAAGAAGTTATTAAGGGATGAATAATCCTTCAATATAAATTTCTCTCACTTATTTAAA”, the “cleaved RNA product abundance” value under setting [1] turned out to be 0.346.
For the sequence “ACAGACGAAGGAGCCGCAAAGAAGTTATTAAGGGATGAATAATCCTTCAATATAAGTATCTCTCACTTATTTAAA”, the “cleaved RNA product abundance” value under setting [1] amounted to 0.213.
As to “ACAGACGAAGGAGCCGCAAAGAAGTTATTAAGGGATGAATAATCCTTCAATATAATTATCTCTCACTTATTTAAA”, the “cleaved RNA product abundance” value was determined as 0.219 under setting [2] and 0.387 under setting [1].
The corresponding values for “ACAGACGAAGGAGCCGCAAAGAAGTTATTAAGGGATGAATAATCCTTCAATATACATATCTCTCACTTATTTAAA” are 0.334 and 0.785.
As to “ACAGACGAAGGAGCCGCAAAGAAGTTATTAAGGGATGAATAATCCTTCAATATATATATCTCTCACTTATTTAAA”, the “cleaved RNA product abundance” value under setting [1] came to 0.604.
As to “ACAGACGAAGGAGCCGCAAAGAAGTTATTAAGGGATGAATAATCCTTCAATATGAATATCTCTCACTTATTTAAA”, the “cleaved RNA product abundance” value under setting [1] is 0.18.
Take “ACAGACGAAGGAGCCGCAAAGAAGTTATTAAGGGATGAATAATCCTTCAATGTAAATATCTCTCACTTATTTAAA”: under setting [1], the “cleaved RNA product abundance” value was found to be 0.167.
“ACAGACGAAGGAGCCGCAAAGAAGTTATTAAGGGATGAATAATCCTTCAATTTAAATATCTCTCACTTATTTAAA”: the “cleaved RNA product abundance” value by setting is: under setting [2], 0.144; under setting [1], 0.138.
Take “ACAGACGAAGGAGCCGCAAAGAAGTTATTAAGGGATGAATAATCCTTCAGTATAAATATCTCTCACTTATTTAAA”: the “cleaved RNA product abundance” value under setting [1] was determined as 0.166.
“ACAGACGAAGGAGCCGCAAAGAAGTTATTAAGGGATGAATAATCCTTCATTATAAATATCTCTCACTTATTTAAA”: the “cleaved RNA product abundance” value under setting [1] is 0.313.
On to “ACAGACGAAGGAGCCGCAAAGAAGTTATTAAGGGATGAATAATCCTTCCATATAAATATCTCTCACTTATTTAAA”, for which the “cleaved RNA product abundance” value under setting [2] was found to be 0.19.
As for “ACAGACGAAGGAGCCGCAAAGAAGTTATTAAGGGATGAATAATCCTTCGATATAAATATCTCTCACTTATTTAAA”, the “cleaved RNA product abundance” value under setting [1] was 0.257.
Still for that read-out and setting: the same measure for “ACAGACGAAGGAGCCGCAAAGAAGTTATTAAGGGATGAATAATCGCACAATATAAATATCTCTCACTTATTTAAA”: 0.0643.
Take “ACAGACGAAGGAGCCGCAAAGAAGTTATTAAGGGATGAATAATCGCTAAATATAAATATCTCTCACTTATTTAAA”: the “cleaved RNA product abundance” value under setting [2] is 0.0982.
Take “ACAGACGAAGGAGCCGCAAAGAAGTTATTAAGGGATGAATAATCGCTCAAAATAAATATCTCTCACTTATTTAAA”: the “cleaved RNA product abundance” value under setting [1] came out at 0.116.
Regarding “ACAGACGAAGGAGCCGCAAAGAAGTTATTAAGGGATGAATAATCGCTCAATATAAATACCTCTCACTTATTTAAA”, the “cleaved RNA product abundance” value under setting [2] turned out to be 0.0956.
“ACAGACGAAGGAGCCGCAAAGAAGTTATTAAGGGATGAATAATCGCTCAATATAAATATCTCTCACTTATTTAAA”: the “cleaved RNA product abundance” value under setting [2] was 0.101, the “cleaved RNA product abundance” value under setting [1] was found to be 0.12 and the “cleaved RNA product abundance” value under setting [3] stood at 0.0971.
In the case of “ACAGACGAAGGAGCCGCAAAGAAGTTATTAAGGGATGAATAATCGCTCAATATATATATCTCTCACTTATTTAAA”, the “cleaved RNA product abundance” value runs as follows: under setting [2], 0.113; under setting [1], 0.0772.
Turning to “ACAGACGAAGGAGCCGCAAAGAAGTTATTAAGGGATGAATAATCGCTCAATATTAATATCTCTCACTTATTTAAA”, the “cleaved RNA product abundance” value under setting [2] amounted to 0.0992.
For the sequence “ACAGACGAAGGAGCCGCAAAGAAGTTATTAAGGGATGAATAATCGCTCAATGTAAATATCTCTCACTTATTTAAA”, the “cleaved RNA product abundance” value under setting [1] came to 0.048.
For the sequence “ACAGACGAAGGAGCCGCAAAGAAGTTATTAAGGGATGAATAATCGCTCATTATAAATATCTCTCACTTATTTAAA”, the “cleaved RNA product abundance” value under setting [2] came out at 0.0605.
For the sequence “ACAGACGAAGGAGCCGCAAAGAAGTTATTAAGGGATGAATAATCGTTCAATATAAATATCTCTCACTTATTTAAA”, the “cleaved RNA product abundance” value under setting [1] was found to be 0.0943.
The same measure, in the same setting: the same measure for “ACAGACGAAGGAGCCGCAAAGAAGTTATTAAGGGATGAATAATCTATCAATATAAATATCTCTCACTTATTTAAA”: 0.135.
Take “ACAGACGAAGGAGCCGCAAAGAAGTTATTAAGGGATGAATAATCTCACAATATAAATATCTCTCACTTATTTAAA”: the “cleaved RNA product abundance” value is, setting by setting: under setting [2], 0.18; under setting [1], 0.262.
In the same order, the values of “ACAGACGAAGGAGCCGCAAAGAAGTTATTAAGGGATGAATAATCTCTAAATATAAATATCTCTCACTTATTTAAA” are 0.627 and 0.558.
In the same order, the values of “ACAGACGAAGGAGCCGCAAAGAAGTTATTAAGGGATGAATAATCTCTCAAAATAAATATCTCTCACTTATTTAAA” are 0.283 and 0.283.
In the case of “ACAGACGAAGGAGCCGCAAAGAAGTTATTAAGGGATGAATAATCTCTCAACATAAATATCTCTCACTTATTTAAA”, under setting [1], the “cleaved RNA product abundance” value is 0.156.
“ACAGACGAAGGAGCCGCAAAGAAGTTATTAAGGGATGAATAATCTCTCAATATAAAAATCTCTCACTTATTTAAA”: the “cleaved RNA product abundance” value under setting [2] stood at 0.464 and the “cleaved RNA product abundance” value under setting [1] is 0.43.
As for “ACAGACGAAGGAGCCGCAAAGAAGTTATTAAGGGATGAATAATCTCTCAATATAAATAACTCTCACTTATTTAAA”, the “cleaved RNA product abundance” value under setting [2] was 0.645.
Regarding “ACAGACGAAGGAGCCGCAAAGAAGTTATTAAGGGATGAATAATCTCTCAATATAAATATCTCTCACTTATTTAAA”, the “cleaved RNA product abundance” value runs as follows: under setting [2], 0.688; under setting [1], 0.738; under setting [3], 0.96.
On to “ACAGACGAAGGAGCCGCAAAGAAGTTATTAAGGGATGAATAATCTCTCAATATAAATATTTCTCACTTATTTAAA”, for which the “cleaved RNA product abundance” value under setting [1] amounted to 0.948.
“ACAGACGAAGGAGCCGCAAAGAAGTTATTAAGGGATGAATAATCTCTCAATATAAATTTCTCTCACTTATTTAAA”: the “cleaved RNA product abundance” value under setting [1] worked out at 0.708.
As for “ACAGACGAAGGAGCCGCAAAGAAGTTATTAAGGGATGAATAATCTCTCAATATATATATCTCTCACTTATTTAAA”, the “cleaved RNA product abundance” value is, setting by setting: under setting [2], 0.682; under setting [1], 0.989.
Turning to “ACAGACGAAGGAGCCGCAAAGAAGTTATTAAGGGATGAATAATCTCTCATTATAAATATCTCTCACTTATTTAAA”, the “cleaved RNA product abundance” value under setting [1] was 0.351.
On to “ACAGACGAAGGAGCCGCAAAGAAGTTATTAAGGGATGAATAATCTCTCTATATAAATATCTCTCACTTATTTAAA”, for which the “cleaved RNA product abundance” value under setting [1] was determined as 0.292.
On the same count and under the same terms, the value for “ACAGACGAAGGAGCCGCAAAGAAGTTATTAAGGGATGAATAATCTCTGAATATAAATATCTCTCACTTATTTAAA” was 0.634.
On to “ACAGACGAAGGAGCCGCAAAGAAGTTATTAAGGGATGAATAATCTGTCAATATAAATATCTCTCACTTATTTAAA”, for which the “cleaved RNA product abundance” value runs as follows: under setting [2], 0.0956; under setting [1], 0.123.
Consider “ACAGACGAAGGAGCCGCAAAGAAGTTATTAAGGGATGAATAATCTTTCAATATAAATATCTCTCACTTATTTAAA”, for which the “cleaved RNA product abundance” value under setting [1] was found to be 0.122.
The same measure, in the same setting: the value for “ACAGACGAAGGAGCCGCAAAGAAGTTATTAAGGGATGAATAATGACTCAATATAAATATCTCTCACTTATTTAAA” was 0.142; that for “ACAGACGAAGGAGCCGCAAAGAAGTTATTAAGGGATGAATAATGCATCAATATAAATATCTCTCACTTATTTAAA” was 0.159; that for “ACAGACGAAGGAGCCGCAAAGAAGTTATTAAGGGATGAATAATGCCACAATATAAATATCTCTCACTTATTTAAA” was 0.0904.
On the same count and under the same terms, the same measure for “ACAGACGAAGGAGCCGCAAAGAAGTTATTAAGGGATGAATAATGCCCCAATATAAATATCTCTCACTTATTTAAA”: 0.134; for “ACAGACGAAGGAGCCGCAAAGAAGTTATTAAGGGATGAATAATGCCTAAATATAAATATCTCTCACTTATTTAAA”: 0.149.
Still for that read-out and setting: the value for “ACAGACGAAGGAGCCGCAAAGAAGTTATTAAGGGATGAATAATGCCTCAAAATAAATATCTCTCACTTATTTAAA” was 0.173; that for “ACAGACGAAGGAGCCGCAAAGAAGTTATTAAGGGATGAATAATGCCTCAATAGAAATATCTCTCACTTATTTAAA” was 0.0653.
